# B1: CPOX (parent)
# chain: HAPTIHFNYRYFEVEEADGNKQWW
# B2: INTS3 (parent)
# chain: AQLQALRQKEVDFCISLLRERFME
# Variants of: B1
# Experiment: protein stability index of a GFP-peptide fusion (GPS, HEK-293T) (PSI 1-6); higher = more stable
# Details: c terminus: a fixed tail appended
# 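Also: lentivirally expressed fusions sorted by FACS into six bins by GFP to DsRed ratio, PSI derived from sequencing read proportions per bin multiplied by bin number.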
row,Variant,protein stability index
1,HAPTIHFNYRYFEVEEADGNKQWK [W24K],3.24
2,HAPTIHFNYRYFEVEEADGNKQWF [W24F],2.69
3,HAPTIHFNYRYFEVEEADGNKQWQ [W24Q],2.34
4,HAPTIHFNYRYFEVEEADGNKQWN [W24N],3.06
5,HAPTIHFNYRYFEVEEADGNKQWA [W24A],3.17
6,HAPTIHFNYRYFEVEEADGNKQWD [W24D],3.82
7,HAPTIHFNYRYFEVEEADGNKQWC [W24C],2.63
8,HAPTIHFNYRYFEVEEADGNKQWH [W24H],3.03
9,HAPTIHFNYRYFEVEEADGNKQWI [W24I],3.35
10,HAPTIHFNYRYFEVEEADGNKQWE [W24E],3.06
11,HAPTIHFNYRYFEVEEADGNKQWG [W24G],2.81
12,HAPTIHFNYRYFEVEEADGNKQWT [W24T],2.86
13,HAPTIHFNYRYFEVEEADGNKQWY [W24Y],2.51
14,HAPTIHFNYRYFEVEEADGNKQWV [W24V],3.1
15,HAPTIHFNYRYFEVEEADGNKQWM [W24M],3.4
16,HAPTIHFNYRYFEVEEADGNKQWP [W24P],2.91
17,HAPTIHFNYRYFEVEEADGNKQWS [W24S],2.91
18,HAPTIHFNYRYFEVEEADGNKQWL [W24L],2.66
19,HAPTIHFNYRYFEVEEADGNKQWR [W24R],3.11
20,HAPTIHFNYRYFEVEEADGNKQTW [W23T],2.63
21,HAPTIHFNYRYFEVEEADGNKQQW [W23Q],3.38
22,HAPTIHFNYRYFEVEEADGNKQYW [W23Y],2.33
23,HAPTIHFNYRYFEVEEADGNKQVW [W23V],2.36
24,HAPTIHFNYRYFEVEEADGNKQSW [W23S],3.19
25,HAPTIHFNYRYFEVEEADGNKQPW [W23P],3.34
26,HAPTIHFNYRYFEVEEADGNKQMW [W23M],3.04
27,HAPTIHFNYRYFEVEEADGNKQNW [W23N],3.71
28,HAPTIHFNYRYFEVEEADGNKQRW [W23R],3.03

# Variants of: B2
# Experiment: as above
# Details: c terminus: a fixed tail appended
row,Variant,protein stability index
1,AQLQALRQFEVDFCISLLRERFME [K9F],2.45
2,AQLQALRQWEVDFCISLLRERFME [K9W],1.45
3,AQLQALRQLEVDFCISLLRERFME [K9L],2.48
4,AQLQALRQREVDFCISLLRERFME [K9R],2.32
5,AQLQALRQMEVDFCISLLRERFME [K9M],2.65
6,AQLQALRQEEVDFCISLLRERFME [K9E],2.18
7,AQLQALRQCEVDFCISLLRERFME [K9C],2.98
8,AQLQALRQKEVDFCISLTRERFME [L18T],2.24
9,AQLQALRQKEVDFCISLMRERFME [L18M],3.87
10,AQLQALRQKEVDFCISLERERFME [L18E],2.57
11,AQLQALRQKEVDFCISLYRERFME [L18Y],3.92
12,AQLQALRQKEVDFCISLFRERFME [L18F],3.16
13,AQLQALRQKEVDFCISLDRERFME [L18D],2.38
14,AQLQALRQKEVDFCISLHRERFME [L18H],1.76
15,AQLQALRQKEVDFCISLVRERFME [L18V],3.22
16,AQLQALRQKEVDFCISLKRERFME [L18K],2.34
17,AQLQALRQKEVDFCISLSRERFME [L18S],1.87
18,AQLQALRQKEVDFCISLLRERDME [F22D],2.24
19,AQLQALRQKEVDFCISLLRERGME [F22G],1.17
20,AQLQALRQKEVDFCISLLRERPME [F22P],1.67
21,AQLQALRQKEVDFCISLLRERKME [F22K],1.92
22,AQLQALRQKEVDFCISLLRERHME [F22H],1.18

row,Variant,protein stability index
1,AQLQALRQKEVDFCHSLLRERFME [I15H],2.37
2,AQLQALRQKEVDFCMSLLRERFME [I15M],1.17
3,AQLQALRQKEVDFCDSLLRERFME [I15D],2.54
4,AQLQALRHKEVDFCISLLRERFME [Q8H],3.1
5,AQLQALRLKEVDFCISLLRERFME [Q8L],1.78
6,AQLQALRAKEVDFCISLLRERFME [Q8A],2.62
7,AQLQALRDKEVDFCISLLRERFME [Q8D],2.83
8,AQLQALRGKEVDFCISLLRERFME [Q8G],2.55
9,AQLQALRTKEVDFCISLLRERFME [Q8T],3.06
10,AQLQALRPKEVDFCISLLRERFME [Q8P],1.22
11,AQLQALRQKEVDFCISLLRERFNE [M23N],2.55
12,AQLQALRQKEVDFCISLLRERFKE [M23K],2.84
13,AQLQALRQKEVDFCISLLRERFVE [M23V],5.11
14,AQLQALRQKEVDFCISLLRERFSE [M23S],1.42
15,AQLQALRQKEVDFCISLLRERFAE [M23A],2.78
16,AQLQALRQKEVDFCISLLRERFPE [M23P],1.79
17,AQLQALRQKEVDNCISLLRERFME [F13N],2.37
18,AQLQALRQKEVDDCISLLRERFME [F13D],1.55
19,AQLQALRQKEVDKCISLLRERFME [F13K],2.9
20,AQLQALRQKEVDQCISLLRERFME [F13Q],1.82
21,AQLQALRQKEVDACISLLRERFME [F13A],1.09
22,AQLQALRQKEVDCCISLLRERFME [F13C],3.42

row,Variant,protein stability index
1,AQLQALRQKEVDECISLLRERFME [F13E],1.66
2,AQLQALRQKEVDYCISLLRERFME [F13Y],5.35
3,AQIQALRQKEVDFCISLLRERFME [L3I],2.87
4,AQKQALRQKEVDFCISLLRERFME [L3K],1.5
5,AQPQALRQKEVDFCISLLRERFME [L3P],1.62
6,AQTQALRQKEVDFCISLLRERFME [L3T],1.44
7,AQMQALRQKEVDFCISLLRERFME [L3M],2
8,AQHQALRQKEVDFCISLLRERFME [L3H],1.41
9,AQQQALRQKEVDFCISLLRERFME [L3Q],1.78
10,AQAQALRQKEVDFCISLLRERFME [L3A],2.15
11,AQSQALRQKEVDFCISLLRERFME [L3S],1.76
12,AQLQALRQKRVDFCISLLRERFME [E10R],2.09
13,AQLQALRQKNVDFCISLLRERFME [E10N],1.32
14,AQLQALRQKCVDFCISLLRERFME [E10C],1.02
15,AQLQACRQKEVDFCISLLRERFME [L6C],3.33
16,AQLQAYRQKEVDFCISLLRERFME [L6Y],2.57
17,AQLQAERQKEVDFCISLLRERFME [L6E],1.52
18,AQLQANRQKEVDFCISLLRERFME [L6N],1.97
19,AQLQAQRQKEVDFCISLLRERFME [L6Q],2.02
20,AQLQAWRQKEVDFCISLLRERFME [L6W],1.73
21,AQLQAPRQKEVDFCISLLRERFME [L6P],2.25
22,AQLQARRQKEVDFCISLLRERFME [L6R],2.02

# Source: the supplement of paper PMC10567573
